Measured values as given in article PMC8450086, “Cooperative DNA binding mediated by KicGAS/ORF52 oligomerization allows inhibition of DNA-induced phase separation and activation of cGAS”.

What was measured:
[1] = target: T1, KicGAS (Kaposi sarcoma-associated herpesvirus …, UniProt Q2HR80 1-131); assay: fluorescence polarization; Hill n 2.15; EMSA: 20 mM Tris-HCl pH 7.4, 150 mM NaCl, 10% glycerol, on ice, 20 nM FAM-DNA, gel at 4 C; FP: 400 pg/ul FAM-DNA, buffer and temperature not stated; Hill fits; conditions: protein: recombinant; tags: Avi-His6-SUMO removed (tag-free); label: 5' FAM
T1 sequence: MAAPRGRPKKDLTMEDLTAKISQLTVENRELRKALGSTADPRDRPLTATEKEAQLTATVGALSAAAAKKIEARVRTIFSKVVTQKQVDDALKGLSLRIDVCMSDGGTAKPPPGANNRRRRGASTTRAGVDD

[2] = target: T1, KicGAS; assay: fluorescence polarization; Hill n 2.24; EMSA: 20 mM Tris-HCl pH 7.4, 150 mM NaCl, 10% glycerol, on ice, 20 nM FAM-DNA, gel at 4 C; FP: 400 pg/ul FAM-DNA, buffer and temperature not stated; Hill fits; conditions: protein: recombinant, tags: Avi-His6-SUMO removed (tag-free)
[3] = target: T1, KicGAS; assay: fluorescence polarization; Hill n 2.55; EMSA: 20 mM Tris-HCl pH 7.4, 150 mM NaCl, 10% glycerol, on ice, 20 nM FAM-DNA, gel at 4 C; FP: 400 pg/ul FAM-DNA, buffer and temperature not stated; Hill fits; conditions: protein: recombinant; tags: Avi-His6-SUMO removed (tag-free); label: 5' FAM sense strand; blunt
[4] = target: T1, KicGAS; assay: fluorescence polarization; EMSA: 20 mM Tris-HCl pH 7.4, 150 mM NaCl, 10% glycerol, on ice, 20 nM FAM-DNA, gel at 4 C; FP: 400 pg/ul FAM-DNA, buffer and temperature not stated; Hill fits; conditions: protein: recombinant; tags: Avi-His6-SUMO removed (tag-free); label: 5' FAM sense strand; blunt
[5] = target: T1, KicGAS; assay: fluorescence polarization; Hill n 2.33; EMSA: 20 mM Tris-HCl pH 7.4, 150 mM NaCl, 10% glycerol, on ice, 20 nM FAM-DNA, gel at 4 C; FP: 400 pg/ul FAM-DNA, buffer and temperature not stated; Hill fits; conditions: protein: recombinant; tags: Avi-His6-SUMO removed (tag-free); label: 5' FAM sense strand; blunt
[6] = target: T1, KicGAS; assay: fluorescence polarization; Hill n 1.50; EMSA: 20 mM Tris-HCl pH 7.4, 150 mM NaCl, 10% glycerol, on ice, 20 nM FAM-DNA, gel at 4 C; FP: 400 pg/ul FAM-DNA, buffer and temperature not stated; Hill fits; conditions: protein: recombinant; tags: Avi-His6-SUMO removed (tag-free); label: 5' FAM
[7] = target: T1, KicGAS; assay: fluorescence polarization; Hill n 1.70; EMSA: 20 mM Tris-HCl pH 7.4, 150 mM NaCl, 10% glycerol, on ice, 20 nM FAM-DNA, gel at 4 C; FP: 400 pg/ul FAM-DNA, buffer and temperature not stated; Hill fits; conditions: protein: recombinant; tags: Avi-His6-SUMO removed (tag-free); label: 5' FAM sense strand; blunt
[8] = target: T1, KicGAS; assay: fluorescence polarization; Hill n 2.31; EMSA: 20 mM Tris-HCl pH 7.4, 150 mM NaCl, 10% glycerol, on ice, 20 nM FAM-DNA, gel at 4 C; FP: 400 pg/ul FAM-DNA, buffer and temperature not stated; Hill fits; conditions: protein: recombinant; tags: Avi-His6-SUMO removed (tag-free); label: 5' FAM sense strand; blunt
[9] = target: T1, KicGAS; assay: fluorescence polarization; Hill n 1.88; EMSA: 20 mM Tris-HCl pH 7.4, 150 mM NaCl, 10% glycerol, on ice, 20 nM FAM-DNA, gel at 4 C; FP: 400 pg/ul FAM-DNA, buffer and temperature not stated; Hill fits; conditions: protein: recombinant; tags: Avi-His6-SUMO removed (tag-free); label: 5' FAM sense strand; blunt
[10] = target: T1, KicGAS; assay: fluorescence polarization; Hill n 0.90; EMSA: 20 mM Tris-HCl pH 7.4, 150 mM NaCl, 10% glycerol, on ice, 20 nM FAM-DNA, gel at 4 C; FP: 400 pg/ul FAM-DNA, buffer and temperature not stated; Hill fits; conditions: protein: recombinant; tags: Avi-His6-SUMO removed (tag-free); label: 5' FAM
[11] = target: T1, KicGAS; assay: fluorescence polarization; Hill n 2.21; EMSA: 20 mM Tris-HCl pH 7.4, 150 mM NaCl, 10% glycerol, on ice, 20 nM FAM-DNA, gel at 4 C; FP: 400 pg/ul FAM-DNA, buffer and temperature not stated; Hill fits; conditions: protein: recombinant; tags: Avi-His6-SUMO removed (tag-free); label: 5' FAM
[12] = target: T1, KicGAS; assay: fluorescence polarization; Hill n 2.36; EMSA: 20 mM Tris-HCl pH 7.4, 150 mM NaCl, 10% glycerol, on ice, 20 nM FAM-DNA, gel at 4 C; FP: 400 pg/ul FAM-DNA, buffer and temperature not stated; Hill fits; conditions: protein: recombinant; tags: Avi-His6-SUMO removed (tag-free); label: 5' FAM sense strand; blunt
[13] = target: T1, KicGAS; assay: EMSA; Hill n 2.20; EMSA: 20 mM Tris-HCl pH 7.4, 150 mM NaCl, 10% glycerol, on ice, 20 nM FAM-DNA, gel at 4 C; FP: 400 pg/ul FAM-DNA, buffer and temperature not stated; Hill fits; conditions: protein: recombinant; tags: Avi-His6-SUMO removed (tag-free); label: 5' FAM sense strand; blunt
[14] = target: T1, KicGAS; assay: fluorescence polarization; Hill n 2.1; EMSA: 20 mM Tris-HCl pH 7.4, 150 mM NaCl, 10% glycerol, on ice, 20 nM FAM-DNA, gel at 4 C; FP: 400 pg/ul FAM-DNA, buffer and temperature not stated; Hill fits; conditions: protein: recombinant; tags: Avi-His6-SUMO removed (tag-free); label: 5' FAM sense strand; blunt
[15] = target: T1, KicGAS; assay: fluorescence polarization; Hill n 1.85; EMSA: 20 mM Tris-HCl pH 7.4, 150 mM NaCl, 10% glycerol, on ice, 20 nM FAM-DNA, gel at 4 C; FP: 400 pg/ul FAM-DNA, buffer and temperature not stated; Hill fits; conditions: protein: recombinant, tags: Avi-His6-SUMO removed (tag-free)
[16] = target: T1, KicGAS; assay: fluorescence polarization; Hill n 2.05; EMSA: 20 mM Tris-HCl pH 7.4, 150 mM NaCl, 10% glycerol, on ice, 20 nM FAM-DNA, gel at 4 C; FP: 400 pg/ul FAM-DNA, buffer and temperature not stated; Hill fits; conditions: protein: recombinant; tags: Avi-His6-SUMO removed (tag-free); label: 5' FAM sense strand; blunt
[17] = target: T1, KicGAS; assay: fluorescence polarization; Hill n 1.33; EMSA: 20 mM Tris-HCl pH 7.4, 150 mM NaCl, 10% glycerol, on ice, 20 nM FAM-DNA, gel at 4 C; FP: 400 pg/ul FAM-DNA, buffer and temperature not stated; Hill fits; conditions: protein: recombinant; tags: Avi-His6-SUMO removed (tag-free); label: 5' FAM
[18] = target: T1, KicGAS; assay: fluorescence polarization; Hill n 1.69; EMSA: 20 mM Tris-HCl pH 7.4, 150 mM NaCl, 10% glycerol, on ice, 20 nM FAM-DNA, gel at 4 C; FP: 400 pg/ul FAM-DNA, buffer and temperature not stated; Hill fits; conditions: protein: recombinant; tags: Avi-His6-SUMO removed (tag-free); label: 5' FAM sense strand; blunt
[19] = target: T1, KicGAS; assay: EMSA; Hill n 1.95; EMSA: 20 mM Tris-HCl pH 7.4, 150 mM NaCl, 10% glycerol, on ice, 20 nM FAM-DNA, gel at 4 C; FP: 400 pg/ul FAM-DNA, buffer and temperature not stated; Hill fits; conditions: protein: recombinant; tags: Avi-His6-SUMO removed (tag-free); label: 5' FAM sense strand; blunt
[20] = target: T1, KicGAS; assay: fluorescence polarization; Hill n 1.84; EMSA: 20 mM Tris-HCl pH 7.4, 150 mM NaCl, 10% glycerol, on ice, 20 nM FAM-DNA, gel at 4 C; FP: 400 pg/ul FAM-DNA, buffer and temperature not stated; Hill fits; conditions: protein: recombinant; tags: Avi-His6-SUMO removed (tag-free); label: 5' FAM sense strand; blunt

B1: ssHSV60 (ssDNA)
DNA: TAAGACACGATGCGATAAAATCTGTTTGTAAAATTTATTAAGGGTACAAATT
B1 showed a Kd [1] of 170 ± 10 nM.

B2: HSV60 (dsDNA)
DNA 1: B1 DNA
DNA 2: AATTTGTACCCTTAATAAATTTTACAAACAGATTTTATCGCATCGTGTCTTA
B2 showed a Kd ([2]; label: 5' FAM sense strand, blunt) of 160 ± 10 nM.

B3: KS90 (dsDNA)
DNA 1: TCGTCTCGCCTGTCAAATCGTCTATGTTTTTCGGCGCGTTGTGCCAATATAACTCTAGAAACTAATACTGTATCTGTCAGCAGTACTACA
DNA 2: TGTAGTACTGCTGACAGATACAGTATTAGTTTCTAGAGTTATATTGGCACAACGCGCCGAAAAACATAGACGATTTGACAGGCGAGACGA
In the case of B3, the Kd [3] is reported as 100 ± 10 nM.

B4: ssKS90 (ssDNA)
DNA: B3 DNA 1
B4 was tested, and the Kd ([2]; label: 5' FAM) was 100 ± 10 nM.

B5: ISD12 (dsDNA)
DNA 1: ACTGATCTGTAC
DNA 2: GTACAGATCAGT
B5: no binding [4].

B6: 0% GC (dsDNA)
DNA 1: ATTTAATAATAATTTATTAT
DNA 2: ATAATAAATTATTATTAAAT
For B6, the Kd [5] was 800 ± 50 nM.

ATCTACTAGTGATCTATGACTGATCTGTAC (ssDNA) [ssISD30] gave a Kd [6] of 720 ± 50 nM.

B7: ISD20 (dsDNA)
DNA 1: ATCTATGACTGATCTGTACA
DNA 2: TGTACAGATCAGTCATAGAT
Work on B7 yielded a Kd [7] of 820 ± 80 nM.

B8: 30% GC (dsDNA)
DNA 1: ATATCGCTATAGATATCATC
DNA 2: GATGATATCTATAGCGATAT
For B8, the Kd [8] was 1070 ± 60 nM.

B9: ISD30 (dsDNA)
DNA 1: ATCTACTAGTGATCTATGACTGATCTGTAC
DNA 2: GTACAGATCAGTCATAGATCACTAGTAGAT
With B9 the Kd [9] was 290 ± 20 nM.

Binder ATCTATGACTGATCTGTACA (ssDNA) [ssISD20] has a Kd [10] of 5080 ± 400 nM.

B10: ssVACV72 (ssDNA)
DNA: ATCCATCAGAAAGAGGTTTAATATTTTTGTGAGACCATCGAAGAGAGAAAGAGATAAAACTTTTTTACGACT
B10 gave a Kd [11] of 130 ± 10 nM.

B11: VACV72 (dsDNA)
DNA 1: B10 DNA
DNA 2: AGTCGTAAAAAAGTTTTATCTCTTTCTCTCTTCGATGGTCTCACAAAAATATTAAACCTCTTTCTGATGGAT
B11 showed a Kd [12] of 130 ± 10 nM.

B12: ISD45 (dsDNA)
DNA 1: TACAGATCTACTAGTGATCTATGACTGATCTGTACATGATCTACA
DNA 2: TGTAGATCATGTACAGATCAGTCATAGATCACTAGTAGATCTGTA
In the case of B12, the Kd [13] is reported as 120 ± 10 nM and the Kd [14] is reported as 150 ± 20 nM.

With TACAGATCTACTAGTGATCTATGACTGATCTGTACATGATCTACA (ssDNA) [ssISD45] the Kd ([15]; label: 5' FAM) was 260 ± 10 nM.

B13: DNA-RNA hybrid 45 (DNA:RNA)
RNA: UACAGAUCUACUAGUGAUCUAUGACUGAUCUGUACAUGAUCUACA
DNA: B12 DNA 2
B13 gave a Kd ([15]; label: 5' FAM sense strand (RNA), blunt) of 300 ± 20 nM.

B14: 90% GC (dsDNA)
DNA 1: CCGCCAGCCCGCGGGCTGGC
DNA 2: GCCAGCCCGCGGGCTGGCGG
Binder B14 has a Kd [16] of 1160 ± 80 nM.

CTAGTGATCTATGACTGATCTGTAC (ssDNA) [ssISD25] was tested, and the Kd [17] was 1580 ± 220 nM.

B15: dsRNA45 (dsRNA)
RNA 1: B13 RNA
RNA 2: UGUAGAUCAUGUACAGAUCAGUCAUAGAUCACUAGUAGAUCUGUA
Binder B15 has a Kd [18] of 560 ± 50 nM.

B16: ISD25 (dsDNA)
DNA 1: CTAGTGATCTATGACTGATCTGTAC
DNA 2: GTACAGATCAGTCATAGATCACTAG
With B16 the Kd [19] was 380 ± 30 nM and the Kd [20] was 440 ± 30 nM.
